Drawing on PMC5899673, this text covers Kd, koff and kon for five molecules.

B1: SPIN (Staphylococcal Peroxidase INhibitor) from S. aureus strain Newman (natural protein)
chain: KVYSQNGLVLHDDANFLEHELSYIDVLLDKNADQATKDNLRSYFADKGLHSIKDIINKAKQDGFDVSKYEHVK

This assay deals with Native human myeloperoxidase (MPO) isolated from purulent sputum (human) (UniProt P05164). As to the kind of experiment: SPR. On the technique in general: SPR reads the build-up and loss of mass on a sensor chip optically.
UniProt P05164, sequence (P05164 165-745): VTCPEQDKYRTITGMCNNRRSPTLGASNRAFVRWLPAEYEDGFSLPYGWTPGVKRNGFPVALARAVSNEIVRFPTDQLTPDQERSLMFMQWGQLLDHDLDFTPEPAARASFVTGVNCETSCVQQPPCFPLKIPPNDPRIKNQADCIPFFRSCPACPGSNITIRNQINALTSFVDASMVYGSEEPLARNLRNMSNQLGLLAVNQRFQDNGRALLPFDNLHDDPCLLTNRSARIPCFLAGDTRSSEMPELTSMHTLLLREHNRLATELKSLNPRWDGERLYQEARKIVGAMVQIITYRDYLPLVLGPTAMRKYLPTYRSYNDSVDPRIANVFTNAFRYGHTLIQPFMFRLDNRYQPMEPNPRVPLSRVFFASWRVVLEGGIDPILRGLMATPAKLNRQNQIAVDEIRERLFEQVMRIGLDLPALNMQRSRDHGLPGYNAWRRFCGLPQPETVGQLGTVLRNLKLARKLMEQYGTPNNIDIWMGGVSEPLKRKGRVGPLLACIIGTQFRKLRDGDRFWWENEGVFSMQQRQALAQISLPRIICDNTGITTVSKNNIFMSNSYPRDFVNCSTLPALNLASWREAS
Consider “SPIN-agnetis (SPIN homolog from S. agnetis) (natural protein)”, for which the Kd (commonly the equilibrium constant for the complex coming apart) came to 41.8 nM; the koff (in general, the rate constant with which the complex falls apart) was found to be 0.00236 s⁻¹; the kon – broadly, the rate constant with which the complex forms – amounted to 56400 M⁻¹ s⁻¹.
The like results for “SPIN-delphini (SPIN from Staphylococcus delphini) (natural protein)” were, in that order, 310 nM, 0.00334 s⁻¹ and 10800 M⁻¹ s⁻¹.
“SPIN-intermedius (SPIN homolog from S. intermedius) (natural protein)” registered a Kd of 984 nM, a koff of 0.00334 s⁻¹ and a kon of 3500 M⁻¹ s⁻¹.
The molecule “SPIN-schleiferi (SPIN homolog from S. schleiferi) (natural protein)” had a Kd of 230 nM, an off-rate (koff) of 0.00252 s⁻¹ and a kon of 11200 M⁻¹ s⁻¹.
The like results for B1 were, in that order, 15.9 nM, 0.00316 s⁻¹ and 201000 M⁻¹ s⁻¹.
